Results taken from patent US20210300987A1 (published 2021).

Legend:
[1] = biological target: HA-1^R-peptide (…) loaded on HLA-A*02:01 encoded molecules on T2 cells (human); assay: cell-based or functional assay
[2] = biological target: T1, Astn1 P1268L (control peptide) peptide on HLA-A*02:01 (human); assay: cytokine release
T1 peptide: KLYGLDWAEL

[3] = biological target: T2, HA-1^H (minor histocompatibility antigen 1, HMHA1 gene, H allele) peptide on HLA-A*02:01 (human); assay: multimer staining
T2 peptide: VLHDDLLEA
Excerpt: Transduced CD8 T cells were enriched by FACS using the murine constant beta region as a marker for transduction. After expansion of these cells, they were stained with an HA-1^H-MHC-multimer and antibodies against CD8 and the murine constant beta region (mCb) and analyzed by flow cytometry.
The nucleotide sequences of the isolated TCRs were codon optimized using the GeneOptimizer™ algorithm (ThermoFisher) and the constant regions were murinized. Codon optimized and murinized TCRs were used for all further experiments described herein. They were stained with an HA-1^H-MHC-multimer (immunAware) and antibodies against CD8 and the murine constant beta region. […] (FIG. 1)

[4] = biological target: T2, HA-1^H (minor histocompatibility …); assay: killing
[5] = biological target: T3, HA-1^R (minor histocompatibility antigen 1, HMHA1 gene, R allele) peptide on HLA-A*02:01 (human); assay: cytokine release
T3 peptide: VLRDDLLEA

Binder	peptide concentration needed for recognition (IFN-γ release), relative to HA-1^H [1] [times]	binding result [2]	binding result [3]	also measured
TCR_3, P01849 1-136 (TCR, not shown: a dimerising Fc or GST) TCR alpha: SQQGEEDPQALSIQEGENATMNCSYKTSINNLQWYRQNSGRGLVHLILIRSNEREKHSGRLRVTLDTSKKSSSLLITASRAADTASYFCATGDQTGANNLFFGTGTRLTVIPYIQNPEPAVYQLKDPRSQDSTLCLFTDFDSQINVPKTMESGTFITDKTVLDMKAMDSKSNGAIAWSNQTSFTCQDIFKETNATYPSSDVPCDATLTEKSFETDMNLNFQNLSVMGLRILLLKVAGFNLLMTLRLWSS TCR beta: DTGVSQNPRHKITKRGQNVTFRCDPISEHNRLYWYRQTLGQGPEFLTYFQNEAQLEKSRLLSDRFSAERPKGSFSTLEIQRTEQGDSAMYLCASSLTRTEKLFFGSGTQLSVLE	> 10000	–	–	–
TCR_4, P01849 1-136 (TCR, not shown: a dimerising Fc or GST) TCR alpha: GENVEQHPSTLSVQEGDSAVIKCTYSDSASNYFPWYKQELGKGPQLIIDIRSNVGEKKDQRIAVTLNKTAKHFSLHITETQPEDSAVYFCAGRGKLTFGTGTRLTIIPNIQNPEPAVYQLKDPRSQDSTLCLFTDFDSQINVPKTMESGTFITDKTVLDMKAMDSKSNGAIAWSNQTSFTCQDIFKETNATYPSSDVPCDATLTEKSFETDMNLNFQNLSVMGLRILLLKVAGFNLLMTLRLWSS TCR beta: DTGVSQNPRHKITKRGQNVTFRCDPISEHNRLYWYRQTLGQGPEFLTYFQNEAQLEKSRLLSDRFSAERPKGSFSTLEIQRTEQGDSAMYLCASSLVRDEKLFFGSGTQLSVLE	> 10000	–	–	–
TCR_6, P01849 1-136 (TCR, not shown: a dimerising Fc or GST) TCR alpha: RGEDVEQSLFLSVREGDSSVINCTYTDSSSTYLYWYKQEPGAGLQLLTYIFSNMDMKQDQRLTVLLNKKDKHLSLRIADTQTGDSAIYFCAEKWIIFGKGTRLHILPNIQNPEPAVYQLKDPRSQDSTLCLFTDFDSQINVPKTMESGTFITDKTVLDMKAMDSKSNGAIAWSNQTSFTCQDIFKETNATYPSSDVPCDATLTEKSFETDMNLNFQNLSVMGLRILLLKVAGFNLLMTLRLWSS TCR beta: DTGVSQNPRHKITKRGQNVTFRCDPISEHNRLYWYRQTLGQGPEFLTYFQNEAQLEKSRLLSDRFSAERPKGSFSTLEIQRTEQGDSAMYLCASSLTTPDGYTFGSGTRLTVVE	> 10000	–	–	–
TCR_5, P01849 1-136 (TCR, not shown: a dimerising Fc or GST) TCR alpha: TQLLEQSPQFLSIQEGENLTVYCNSSSVFSSLQWYRQEPGEGPVLLVTVVTGGEVKKLKRLTFQFGDARKDSSLHITAAQTGDTGLYLCAGAGNNDMRFGAGTRLTVKPNIQNPEPAVYQLKDPRSQDSTLCLFTDFDSQINVPKTMESGTFITDKTVLDMKAMDSKSNGAIAWSNQTSFTCQDIFKETNATYPSSDVPCDATLTEKSFETDMNLNFQNLSVMGLRILLLKVAGFNLLMTLRLWSS TCR beta: DTGVSQNPRHKITKRGQNVTFRCDPISEHNRLYWYRQTLGQGPEFLTYFQNEAQLEKSRLLSDRFSAERPKGSFSTLEIQRTEQGDSAMYLCASSLVRGIEAFFGQGTRLTVVE	> 10000	–	–	–
TCR_1, P01849 1-136 (TCR, not shown: a dimerising Fc or GST) TCR alpha: GENVEQHPSTLSVQEGDSAVIKCTYSDSASNYFPWYKQELGKGPQLIIDIRSNVGEKKDQRIAVTLNKTAKHFSLHITETQPEDSAVYFCAASDLNFGKGTSLLVTPHIQNPEPAVYQLKDPRSQDSTLCLFTDFDSQINVPKTMESGTFITDKTVLDMKAMDSKSNGAIAWSNQTSFTCQDIFKETNATYPSSDVPCDATLTEKSFETDMNLNFQNLSVMGLRILLLKVAGFNLLMTLRLWSS TCR beta: DTGVSQNPRHKITKRGQNVTFRCDPISEHNRLYWYRQTLGQGPEFLTYFQNEAQLEKSRLLSDRFSAERPKGSFSTLEIQRTEQGDSAMYLCASSLVSRVDGYTFGSGTRLTVVE	> 10000	–	–	–
TCR_2, P01849 1-136 (TCR, not shown: a dimerising Fc or GST) TCR alpha: GENVEQHPSTLSVQEGDSAVIKCTYSDSASNYFPWYKQELGKGPQLIIDIRSNVGEKKDQRIAVTLNKTAKHFSLHITETQPEDSAVYFCAAHTPGYSTLTFGKGTMLLVSPDIQNPEPAVYQLKDPRSQDSTLCLFTDFDSQINVPKTMESGTFITDKTVLDMKAMDSKSNGAIAWSNQTSFTCQDIFKETNATYPSSDVPCDATLTEKSFETDMNLNFQNLSVMGLRILLLKVAGFNLLMTLRLWSS TCR beta: DTGVSQNPRHKITKRGQNVTFRCDPISEHNRLYWYRQTLGQGPEFLTYFQNEAQLEKSRLLSDRFSAERPKGSFSTLEIQRTEQGDSAMYLCASSPRAGGETQYFGPGTRLLVLE	> 10000	–	–	–
TCR_3 (TCR, V domains shown) Valpha: SQQGEEDPQALSIQEGENATMNCSYKTSINNLQWYRQNSGRGLVHLILIRSNEREKHSGRLRVTLDTSKKSSSLLITASRAADTASYFCATGDQTGANNLFFGTGTRLTVIP Vbeta: DTGVSQNPRHKITKRGQNVTFRCDPISEHNRLYWYRQTLGQGPEFLTYFQNEAQLEKSRLLSDRFSAERPKGSFSTLEIQRTEQGDSAMYLCASSLTRTEKLFFGSGTQLSVL	–	no recognition	recognises	–
TCR_6 (TCR, V domains shown) Valpha: GEDVEQSLFLSVREGDSSVINCTYTDSSSTYLYWYKQEPGAGLQLLTYIFSNMDMKQDQRLTVLLNKKDKHLSLRIADTQTGDSAIYFCAEKWIIFGKGTRLHILP Vbeta: DTGVSQNPRHKITKRGQNVTFRCDPISEHNRLYWYRQTLGQGPEFLTYFQNEAQLEKSRLLSDRFSAERPKGSFSTLEIQRTEQGDSAMYLCASSLTTPDGYTFGSGTRLTVV	–	no recognition	–	binding result [4]: recognises
TCR_5 (TCR, V domains shown) Valpha: TQLLEQSPQFLSIQEGENLTVYCNSSSVFSSLQWYRQEPGEGPVLLVTVVTGGEVKKLKRLTFQFGDARKDSSLHITAAQTGDTGLYLCAGAGNNDMRFGAGTRLTVKP Vbeta: DTGVSQNPRHKITKRGQNVTFRCDPISEHNRLYWYRQTLGQGPEFLTYFQNEAQLEKSRLLSDRFSAERPKGSFSTLEIQRTEQGDSAMYLCASSLVRGIEAFFGQGTRLTVV	–	no recognition	recognises	–
TCR_4 (TCR, V domains shown) Valpha: GENVEQHPSTLSVQEGDSAVIKCTYSDSASNYFPWYKQELGKGPQLIIDIRSNVGEKKDQRIAVTLNKTAKHFSLHITETQPEDSAVYFCAGRGKLTFGTGTRLTIIP Vbeta: DTGVSQNPRHKITKRGQNVTFRCDPISEHNRLYWYRQTLGQGPEFLTYFQNEAQLEKSRLLSDRFSAERPKGSFSTLEIQRTEQGDSAMYLCASSLVRDEKLFFGSGTQLSVL	–	no recognition	recognises	–
TCR_1 (TCR, V domains shown) Valpha: GENVEQHPSTLSVQEGDSAVIKCTYSDSASNYFPWYKQELGKGPQLIIDIRSNVGEKKDQRIAVTLNKTAKHFSLHITETQPEDSAVYFCAASDLNFGKGTSLLVTP Vbeta: DTGVSQNPRHKITKRGQNVTFRCDPISEHNRLYWYRQTLGQGPEFLTYFQNEAQLEKSRLLSDRFSAERPKGSFSTLEIQRTEQGDSAMYLCASSLVSRVDGYTFGSGTRLTVV	–	no recognition	recognises	–
TCR_2 (TCR, V domains shown) Valpha: GENVEQHPSTLSVQEGDSAVIKCTYSDSASNYFPWYKQELGKGPQLIIDIRSNVGEKKDQRIAVTLNKTAKHFSLHITETQPEDSAVYFCAAHTPGYSTLTFGKGTMLLVSP Vbeta: DTGVSQNPRHKITKRGQNVTFRCDPISEHNRLYWYRQTLGQGPEFLTYFQNEAQLEKSRLLSDRFSAERPKGSFSTLEIQRTEQGDSAMYLCASSPRAGGETQYFGPGTRLLVL	–	no recognition	recognises	binding result [5]: no recognition
